Experimental findings from patent publication US20180057604A1 (Genentech, published 2018) are described below.

Assay [1] has as its target T1, human BACE1 ECD.
T1 construct: analyte of the Octet assay (200 nM) and enzyme of the first short substrate assay; also called human BACE1 extracellular domain
As to the kind of experiment: Octet, pH 7.5.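 Note: antibodies captured on anti-human capture biosensor tips, dissociation followed in PBS with BSA buffer, kinetics fitted with a one-to-one binding model.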 On the technique in general: BLI is a label-free optical method that tracks binding on a fibre tip over time.

Assay [2] concerns the target T2, murine BACE1 ECD.
T2 construct: analyte of the Octet assay (200 nM) and enzyme of the first short substrate assay
As to the kind of experiment: Octet, pH 7.5.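 Note: antibodies captured on anti-human capture biosensor tips, dissociation followed in PBS with BSA buffer, kinetics fitted with a one-to-one binding model.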

For assay [3], the target named is T3, human BACE1 (R&D Systems) (human, UniProt P56817).
T3 construct: recombinant, commercial (R&D Systems)
T3 sequence (P56817 22-457 limits assumed): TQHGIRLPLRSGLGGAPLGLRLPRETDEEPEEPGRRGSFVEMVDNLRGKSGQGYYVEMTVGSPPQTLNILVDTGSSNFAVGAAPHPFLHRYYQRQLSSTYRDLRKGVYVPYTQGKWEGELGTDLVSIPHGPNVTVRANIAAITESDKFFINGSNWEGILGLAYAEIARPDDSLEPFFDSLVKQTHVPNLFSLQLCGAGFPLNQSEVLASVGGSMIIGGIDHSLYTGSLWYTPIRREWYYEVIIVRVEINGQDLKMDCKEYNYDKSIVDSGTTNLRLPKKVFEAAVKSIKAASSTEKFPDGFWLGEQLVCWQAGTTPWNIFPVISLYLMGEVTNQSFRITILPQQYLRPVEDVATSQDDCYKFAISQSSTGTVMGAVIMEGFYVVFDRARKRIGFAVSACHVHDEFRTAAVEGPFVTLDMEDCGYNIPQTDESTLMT
The assay is described as follows: SPR (Biacore). (In general: Surface plasmon resonance follows binding to a sensor surface in real time, without labels.)

The target in assay [4] is T1, human BACE1 ECD. As to the kind of experiment: cell-based or functional assay.
T1 sequence (single chain, as listed by the source limits assumed): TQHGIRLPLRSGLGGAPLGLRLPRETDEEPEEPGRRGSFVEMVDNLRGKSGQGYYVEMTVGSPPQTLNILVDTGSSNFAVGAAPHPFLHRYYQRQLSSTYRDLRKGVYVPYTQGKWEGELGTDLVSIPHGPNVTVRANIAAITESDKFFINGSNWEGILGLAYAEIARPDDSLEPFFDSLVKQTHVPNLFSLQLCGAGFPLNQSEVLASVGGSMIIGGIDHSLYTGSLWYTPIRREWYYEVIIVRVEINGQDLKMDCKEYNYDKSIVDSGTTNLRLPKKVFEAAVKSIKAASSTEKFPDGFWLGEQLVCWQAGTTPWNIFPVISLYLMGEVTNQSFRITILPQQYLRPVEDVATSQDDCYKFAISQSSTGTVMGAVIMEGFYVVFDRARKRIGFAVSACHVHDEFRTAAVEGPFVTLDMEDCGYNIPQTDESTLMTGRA
Assay [5] deals with T2, murine BACE1 ECD. As to the kind of experiment: cell-based or functional assay.
T2 sequence (single chain, as listed by the source limits assumed): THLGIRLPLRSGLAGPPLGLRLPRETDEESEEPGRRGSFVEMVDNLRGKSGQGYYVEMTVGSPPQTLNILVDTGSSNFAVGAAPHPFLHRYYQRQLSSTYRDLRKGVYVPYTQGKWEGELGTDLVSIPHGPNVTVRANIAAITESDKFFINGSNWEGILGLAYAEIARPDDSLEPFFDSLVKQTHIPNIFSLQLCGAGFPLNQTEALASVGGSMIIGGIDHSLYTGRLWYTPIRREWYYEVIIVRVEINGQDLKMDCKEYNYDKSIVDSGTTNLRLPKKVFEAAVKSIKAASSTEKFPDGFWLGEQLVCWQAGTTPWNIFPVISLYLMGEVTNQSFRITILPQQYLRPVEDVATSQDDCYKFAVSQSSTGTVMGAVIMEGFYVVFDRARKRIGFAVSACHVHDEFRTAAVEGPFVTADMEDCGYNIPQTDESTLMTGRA
Assay [6] deals with BACE1 (HTRF long substrate and FRET short substrate assays of Example 9D). As to the kind of experiment: cell-based or functional assay.
Assay [7] addresses T4, human TfR extracellular domain with N-terminal His tag (human, UniProt P02786 89-760).
T4 construct: Biotinylated in some assays; also called huTfR; HuTfR
The assay is described as follows: ELISA, IgG.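 Note: ELISA of IgG-containing supernatants tested in 1:5 serial dilutions for 1 h, bound antibody read out with HRP anti-kappa antibody and TMB substrate.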

The target in assay [8] is T5, cyno TfR extracellular domain (analogous construct to human TfR ecd) (cynomolgus monkey, UniProt Q5RDH6 87-760 (Pongo abelii entry)).
T5 construct: also called cynoTfR ecd
T5 chain: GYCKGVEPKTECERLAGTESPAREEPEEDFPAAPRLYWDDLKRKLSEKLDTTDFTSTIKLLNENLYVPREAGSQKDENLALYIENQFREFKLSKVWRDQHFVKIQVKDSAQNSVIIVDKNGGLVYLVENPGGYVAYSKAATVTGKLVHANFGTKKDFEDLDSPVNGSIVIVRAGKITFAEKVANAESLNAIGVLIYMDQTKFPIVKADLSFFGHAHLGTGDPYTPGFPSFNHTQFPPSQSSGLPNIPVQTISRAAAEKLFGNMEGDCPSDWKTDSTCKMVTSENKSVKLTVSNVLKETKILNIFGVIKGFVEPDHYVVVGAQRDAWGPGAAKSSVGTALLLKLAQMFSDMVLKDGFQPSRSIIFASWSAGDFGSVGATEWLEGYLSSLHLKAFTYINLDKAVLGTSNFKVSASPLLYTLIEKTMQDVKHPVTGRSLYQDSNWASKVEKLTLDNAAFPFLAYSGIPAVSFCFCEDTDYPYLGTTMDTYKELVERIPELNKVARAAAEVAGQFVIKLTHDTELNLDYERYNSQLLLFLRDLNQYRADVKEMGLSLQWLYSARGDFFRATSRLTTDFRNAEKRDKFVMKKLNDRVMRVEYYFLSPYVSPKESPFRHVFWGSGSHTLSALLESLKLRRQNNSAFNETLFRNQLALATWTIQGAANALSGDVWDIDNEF
The assay is described as follows: ELISA, IgG.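 Note: ELISA of IgG-containing supernatants tested in 1:5 serial dilutions for 1 h, bound antibody read out with HRP anti-kappa antibody and TMB substrate.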 A general note: ELISA stands for enzyme-linked immunosorbent assay.

T4 sequence (P02786 89-760 G142S): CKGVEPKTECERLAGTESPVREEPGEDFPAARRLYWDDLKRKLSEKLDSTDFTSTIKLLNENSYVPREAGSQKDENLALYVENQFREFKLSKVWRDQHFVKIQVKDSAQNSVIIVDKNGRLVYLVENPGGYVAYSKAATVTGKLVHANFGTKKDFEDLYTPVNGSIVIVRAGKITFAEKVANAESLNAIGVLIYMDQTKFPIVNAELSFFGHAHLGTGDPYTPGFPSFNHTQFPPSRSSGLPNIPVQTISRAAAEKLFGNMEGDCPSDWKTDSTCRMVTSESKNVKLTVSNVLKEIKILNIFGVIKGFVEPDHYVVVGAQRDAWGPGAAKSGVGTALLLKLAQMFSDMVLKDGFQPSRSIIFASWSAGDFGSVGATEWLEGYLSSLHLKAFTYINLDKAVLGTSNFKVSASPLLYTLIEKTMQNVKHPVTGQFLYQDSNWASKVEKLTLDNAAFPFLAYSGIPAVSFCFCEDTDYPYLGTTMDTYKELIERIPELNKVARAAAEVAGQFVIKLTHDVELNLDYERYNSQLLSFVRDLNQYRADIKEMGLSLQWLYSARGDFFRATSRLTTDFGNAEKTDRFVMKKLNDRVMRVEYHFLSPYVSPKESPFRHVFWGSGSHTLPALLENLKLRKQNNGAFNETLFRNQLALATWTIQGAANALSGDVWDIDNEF

B1: 5532 (antibody, V domains shown)
VH: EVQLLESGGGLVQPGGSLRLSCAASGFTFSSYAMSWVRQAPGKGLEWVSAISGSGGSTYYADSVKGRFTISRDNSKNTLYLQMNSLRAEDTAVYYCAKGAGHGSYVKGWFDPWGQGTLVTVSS
VL: EIVLTQSPATLSLSPGERATLSCRASQSVSSYLAWYQQKPGQAPRLLIYDASNRATGIPARFSGSGSGTDFTLTISSLEPEDFAVYYCQQSSNFPFTFGGGTKVEIK
notes: anti-BACE1 IgG
With B1, the Kd (usually the constant that tells how readily two partners part at equilibrium) with human BACE1 ECD [1] stood at 76 nM; with murine BACE1 ECD [2], 48 nM; in assay [3] it was 130 nM. The “% inhibition of BACE1 activity, short FRET substrate” value came out at 56% in the assay with human BACE1 ECD [4] and 50% with murine BACE1 ECD [5]. Moreover, the “EC50, FRET short substrate” value in assay [6] is 52.3 nM. In assay [6], the “EC50, HTRF long substrate” value turned out to be 104 nM.

B2: 5592 (antibody, V domains shown)
VH: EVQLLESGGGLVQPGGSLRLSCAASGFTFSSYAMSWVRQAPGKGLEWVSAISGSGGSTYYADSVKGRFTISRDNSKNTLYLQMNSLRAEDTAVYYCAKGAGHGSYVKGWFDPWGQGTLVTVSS
VL: EIVLTQSPATLSLSPGERATLSCRASQSVSSYLAWYQQKPGQAPRLLIYDASNRATGIPARFSGSGSGTDFTLTISSLEPEDFAVYYCQQSVNFPFTFGGGTKVEIK
notes: anti-BACE1 IgG
On to B2, for which the results for the equilibrium dissociation constant (Kd) (with human BACE1 ECD [1]; in the assay with murine BACE1 ECD [2]; in assay [3]) were 59 nM, 38 nM and 105 nM, respectively. Further, the “% inhibition of BACE1 activity, short FRET substrate” value was determined as 63% in the assay with human BACE1 ECD [4] and 60% in the assay with murine BACE1 ECD [5]. For the same molecule, the “EC50, FRET short substrate” value in assay [6] is 95.9 nM. Also, the “EC50, HTRF long substrate” value in assay [6] came out at 189 nM.

B3: G95A (antibody, V domains shown)
VH: EVQLVQSGAEVKKPGASVKVSCKGSGYTFTDYAMHWVRQAPGQGLEWMGGISTYFGRTNYNQKFKGRVTMTVDTSISTAYMELSRLRSDDTAVYYCARALSGNYVMDYWGQGTTVTVSS
VL: DIVMTQSPDSLAVSLGERATINCRASESVDSYGNSFMHWYQQKPGQPPKLLIYRASNLESGVPDRFSGSGSRTDFTLTISSLQAEDVAVYYCQQSNEAPPTFGQGTKLEIK
notes: also called 7A4.v15 G95A (CDR-H3) IgG; copies: 2 + 2
Regarding B3, the EC50 – broadly, the midpoint of the concentration-response curve – in assay [7] turned out to be 0.0135 µg/mL; in assay [8], 0.0418 µg/mL.

B4: T97A (antibody, V domains shown)
VH: EVQLVQSGAEVKKPGASVKVSCKGSGYTFTDYAMHWVRQAPGQGLEWMGGISTYFGRTNYNQKFKGRVTMTVDTSISTAYMELSRLRSDDTAVYYCARGLSGNYVMDYWGQGTTVTVSS
VL: DIVMTQSPDSLAVSLGERATINCRASESVDSYGNSFMHWYQQKPGQPPKLLIYRASNLESGVPDRFSGSGSRTDFTLTISSLQAEDVAVYYCQQSNEAPPAFGQGTKLEIK
notes: also called 7A4.v15 T97A (CDR-L3) IgG
Turning to B4, the EC50 stood at 0.012 µg/mL in assay [7] and 0.0226 µg/mL in assay [8].

B5: S91A (antibody, V domains shown)
VH: EVQLVQSGAEVKKPGASVKVSCKGSGYTFTDYAMHWVRQAPGQGLEWMGGISTYFGRTNYNQKFKGRVTMTVDTSISTAYMELSRLRSDDTAVYYCARGLSGNYVMDYWGQGTTVTVSS
VL: DIVMTQSPDSLAVSLGERATINCRASESVDSYGNSFMHWYQQKPGQPPKLLIYRASNLESGVPDRFSGSGSRTDFTLTISSLQAEDVAVYYCQQANEAPPTFGQGTKLEIK
notes: also called 7A4.v15 S91A (CDR-L3) IgG
B5: the values for the EC50 in assay [7] and in assay [8] were 0.0113 µg/mL and 0.0163 µg/mL, respectively.

B6: P95A (antibody, V domains shown)
VH: EVQLVQSGAEVKKPGASVKVSCKGSGYTFTDYAMHWVRQAPGQGLEWMGGISTYFGRTNYNQKFKGRVTMTVDTSISTAYMELSRLRSDDTAVYYCARGLSGNYVMDYWGQGTTVTVSS
VL: DIVMTQSPDSLAVSLGERATINCRASESVDSYGNSFMHWYQQKPGQPPKLLIYRASNLESGVPDRFSGSGSRTDFTLTISSLQAEDVAVYYCQQSNEAAPTFGQGTKLEIK
notes: also called 7A4.v15 P95A (CDR-L3) IgG
B6: the figures for the concentration for a half-maximal effect (EC50) in assay [7] and in assay [8] were 0.0097 µg/mL and 0.0159 µg/mL, respectively.

B7: L96A (antibody, V domains shown)
VH: EVQLVQSGAEVKKPGASVKVSCKGSGYTFTDYAMHWVRQAPGQGLEWMGGISTYFGRTNYNQKFKGRVTMTVDTSISTAYMELSRLRSDDTAVYYCARGASGNYVMDYWGQGTTVTVSS
VL: DIVMTQSPDSLAVSLGERATINCRASESVDSYGNSFMHWYQQKPGQPPKLLIYRASNLESGVPDRFSGSGSRTDFTLTISSLQAEDVAVYYCQQSNEAPPTFGQGTKLEIK
notes: also called 7A4.v15 L96A (CDR-H3) IgG; copies: 2 + 2
Consider B7, for which the EC50 in assay [7] stood at 0.0155 µg/mL; in assay [8] it was 0.0287 µg/mL.

B8: Y102A (antibody, V domains shown)
VH: EVQLVQSGAEVKKPGASVKVSCKGSGYTFTDYAMHWVRQAPGQGLEWMGGISTYFGRTNYNQKFKGRVTMTVDTSISTAYMELSRLRSDDTAVYYCARGLSGNYVMDAWGQGTTVTVSS
VL: DIVMTQSPDSLAVSLGERATINCRASESVDSYGNSFMHWYQQKPGQPPKLLIYRASNLESGVPDRFSGSGSRTDFTLTISSLQAEDVAVYYCQQSNEAPPTFGQGTKLEIK
notes: also called 7A4.v15 Y102A (CDR-H3) IgG; copies: 2 + 2
With B8, the EC50 was found to be 0.0126 µg/mL in assay [7] and 0.0178 µg/mL in assay [8].

B9: G98A (antibody, V domains shown)
VH: EVQLVQSGAEVKKPGASVKVSCKGSGYTFTDYAMHWVRQAPGQGLEWMGGISTYFGRTNYNQKFKGRVTMTVDTSISTAYMELSRLRSDDTAVYYCARGLSANYVMDYWGQGTTVTVSS
VL: DIVMTQSPDSLAVSLGERATINCRASESVDSYGNSFMHWYQQKPGQPPKLLIYRASNLESGVPDRFSGSGSRTDFTLTISSLQAEDVAVYYCQQSNEAPPTFGQGTKLEIK
notes: also called 7A4.v15 G98A (CDR-H3) IgG; copies: 2 + 2
For B9, the EC50 in assay [7] is 0.0194 µg/mL; in assay [8], 0.0247 µg/mL.

B10: Y100A (antibody, V domains shown)
VH: EVQLVQSGAEVKKPGASVKVSCKGSGYTFTDYAMHWVRQAPGQGLEWMGGISTYFGRTNYNQKFKGRVTMTVDTSISTAYMELSRLRSDDTAVYYCARGLSGNAVMDYWGQGTTVTVSS
VL: DIVMTQSPDSLAVSLGERATINCRASESVDSYGNSFMHWYQQKPGQPPKLLIYRASNLESGVPDRFSGSGSRTDFTLTISSLQAEDVAVYYCQQSNEAPPTFGQGTKLEIK
notes: also called 7A4.v15 Y100A (CDR-H3) IgG; copies: 2 + 2
For B10, the concentration giving a half-maximal response (EC50) is 0.0159 µg/mL in assay [7] and 0.024 µg/mL in assay [8].

B11: Q89A (antibody, V domains shown)
VH: EVQLVQSGAEVKKPGASVKVSCKGSGYTFTDYAMHWVRQAPGQGLEWMGGISTYFGRTNYNQKFKGRVTMTVDTSISTAYMELSRLRSDDTAVYYCARGLSGNYVMDYWGQGTTVTVSS
VL: DIVMTQSPDSLAVSLGERATINCRASESVDSYGNSFMHWYQQKPGQPPKLLIYRASNLESGVPDRFSGSGSRTDFTLTISSLQAEDVAVYYCAQSNEAPPTFGQGTKLEIK
notes: also called 7A4.v15 Q89A (CDR-L3) IgG
As for B11, the figures for the EC50 in assay [7] and in assay [8] were 0.0109 µg/mL and 0.0138 µg/mL, respectively.

B12: M100bA (antibody, V domains shown)
VH: EVQLVQSGAEVKKPGASVKVSCKGSGYTFTDYAMHWVRQAPGQGLEWMGGISTYFGRTNYNQKFKGRVTMTVDTSISTAYMELSRLRSDDTAVYYCARGLSGNYVADYWGQGTTVTVSS
VL: DIVMTQSPDSLAVSLGERATINCRASESVDSYGNSFMHWYQQKPGQPPKLLIYRASNLESGVPDRFSGSGSRTDFTLTISSLQAEDVAVYYCQQSNEAPPTFGQGTKLEIK
notes: also called 7A4.v15 M100bA (CDR-H3) IgG; copies: 2 + 2
For B12, the EC50 came to 0.0161 µg/mL in assay [7] and 0.0169 µg/mL in assay [8].

B13: N92A (antibody, V domains shown)
VH: EVQLVQSGAEVKKPGASVKVSCKGSGYTFTDYAMHWVRQAPGQGLEWMGGISTYFGRTNYNQKFKGRVTMTVDTSISTAYMELSRLRSDDTAVYYCARGLSGNYVMDYWGQGTTVTVSS
VL: DIVMTQSPDSLAVSLGERATINCRASESVDSYGNSFMHWYQQKPGQPPKLLIYRASNLESGVPDRFSGSGSRTDFTLTISSLQAEDVAVYYCQQSAEAPPTFGQGTKLEIK
notes: also called 7A4.v15 N92A (CDR-L3) IgG
As for B13, the 50% effective concentration (EC50) in assay [7] is 0.0087 µg/mL; in assay [8], 0.0137 µg/mL.

B14: P96A (antibody, V domains shown)
VH: EVQLVQSGAEVKKPGASVKVSCKGSGYTFTDYAMHWVRQAPGQGLEWMGGISTYFGRTNYNQKFKGRVTMTVDTSISTAYMELSRLRSDDTAVYYCARGLSGNYVMDYWGQGTTVTVSS
VL: DIVMTQSPDSLAVSLGERATINCRASESVDSYGNSFMHWYQQKPGQPPKLLIYRASNLESGVPDRFSGSGSRTDFTLTISSLQAEDVAVYYCQQSNEAPATFGQGTKLEIK
notes: also called 7A4.v15 P96A (CDR-L3) IgG
In the case of B14, the 50% effective concentration (EC50) in assay [7] came out at 0.01 µg/mL; in assay [8] it was 0.0162 µg/mL.
